From paper PMC10281804 (2023)

B1: mCherry-KANK1 wild type (human full-length KANK1) [human] / GFP-talin1-cBAK [mouse] (parent complex)
chain 1: MAHTTKVNGSASGKAGDILSGDQDKEQKDPYFVETPYGYQLDLDFLKYVDDIQKGNTIKRLNIQKRRKPSVPCPEPRTTSGQQGIWTSTESLSSSNSDDNKQCPNFLIARSQVTSTPISKPPPPLETSLPFLTIPENRQLPPPSPQLPKHNLHVTKTLMETRRRLEQERATMQMTPGEFRRPRLASFGGMGTTSSLPSFVGSGNHNPAKHQLQNGYQGNGDYGSYAPAAPTTSSMGSSIRHSPLSSGISTPVTNVSPMHLQHIREQMAIALKRLKELEEQVRTIPVLQVKISVLQEEKRQLVSQLKNQRAASQINVCGVRKRSYSAGNASQLEQLSRARRSGGELYIDYEEEEMETVEQSTQRIKEFRQLTADMQALEQKIQDSSCEASSELRENGECRSVAVGAEENMNDIVVYHRGSRSCKDAAVGTLVEMRNCGVSVTEAMLGVMTEADKEIELQQQTIESLKEKIYRLEVQLRETTHDREMTKLKQELQAAGSRKKVDKATMAQPLVFSKVVEAVVQTRDQMVGSHMDLVDTCVGTSVETNSVGISCQPECKNKVVGPELPMNWWIVKERVEMHDRCAGRSVEMCDKSVSVEVSVCETGSNTEESVNDLTLLKTNLNLKEVRSIGCGDCSVDVTVCSPKECASRGVNTEAVSQVEAAVMAVPRTADQDTSTDLEQVHQFTNTETATLIESCTNTCLSTLDKQTSTQTVETRTVAVGEGRVKDINSSTKTRSIGVGTLLSGHSGFDRPSAVKTKESGVGQININDNYLVGLKMRTIACGPPQLTVGLTASRRSVGVGDDPVGESLENPQPQAPLGMMTGLDHYIERIQKLLAEQQTLLAENYSELAEAFGEPHSQMGSLNSQLISTLSSINSVMKSASTEELRNPDFQKTSLGKITGNYLGYTCKCGGLQSGSPLSSQTSQPEQEVGTSEGKPISSLDAFPTQEGTLSPVNLTDDQIAAGLYACTNNESTLKSIMKKKDGNKDSNGAKKNLQFVGINGGYETTSSDDSSSDESSSSESDDECDVIEYPLEEEEEEEDEDTRGMAEGHHAVNIEGLKSARVEDEMQVQECEPEKVEIRERYELSEKMLSACNLLKNTINDPKALTSKDMRFCLNTLQHEWFRVSSQKSAIPAMVGDYIAAFEAISPDVLRYVINLADGNGNTALHYSVSHSNFEIVKLLLDADVCNVDHQNKAGYTPIMLAALAAVEAEKDMRIVEELFGCGDVNAKASQAGQTALMLAVSHGRIDMVKGLLACGADVNIQDDEGSTALMCASEHGHVEIVKLLLAQPGCNGHLEDNDGSTALSIALEAGHKDIAVLLYAHVNFAKAQSPGTPRLGRKTSPGPTHRGSFD
chain 2: MVALSLKISIGNVVKTMQFEPSTMVYDACRMIRERIPEALAGPPNDFGLFLSDDDPKKGIWLEAGKALDYYMLRNGDTMEYRKKQRPLKIRMLDGTVKTIMVDDSKTVTDMLMTICARIGITNHDEYSLVRELMEEKKDEGTGTLRKDKTLLRDEKKMEKLKQKLHTDDELNWLDHGRTLREQGVEEHETLLLRRKFFYSDQNVDSRDPVQLNLLYVQARDDILNGSHPVSFDKACEFAGFQCQIQFGPHNEQKHKAGFLDLKDFLPKEYVKQKGERKIFQAHKNCGQMSEIEAKVRYVKLARSLKTYGVSFFLVKEKMKGKNKLVPRLLGITKECVMRVDEKTKEVIQEWSLTNIKRWAASPKSFTLDFGDYQDGYYSVQTTEGEQIAQLIAGYIDIILKKKKSKDHFGLEGDEESTMLEDSVSPKKSTVLQQQYNRVGKVEHGSVALPAIMRSGASGPENFQVGSMPPAQQQITSGQMHRGHMPPLTSAQQALTGTINSSMQAVQAAQATLDDFETLPPLGQDAASKAWRKNKMDESKHEIHSQVDAITAGTASVVNLTAGDPAETDYTAVGCAVTTISSNLTEMSRGVKLLAALLEDEGGNGRPLLQAAKGLAGAVSELLRSAQPASAEPRQNLLQAAGNVGQASGELLQQIGESDTDPHFQDVLMQLAKAVASAAAALVLKAKSVAQRTEDSGLQTQVIAAATQCALSTSQLVACTKVVAPTISSPVCQEQLVEAGRLVAKAVEGCVSASQAATEDGQLLRGVGAAATAVTQALNELLQHVKAHATGAGPAGRYDQATDTILTVTENIFSSMGDAGEMVRQARILAQATSDLVNAIKADAEGESDLENSRKLLSAAKILADATAKMVEAAKGAAAHPDSEEQQQRLREAAEGLRMATNAAAQNAIKKKLVQRLEHAAKQAAASATQTIAAAQHAASAPKASAGPQPLLVQSCKAVAEQIPLLVQGVRGSQAQPDSPSAQLALIAASQSFLQPGGKMVAAAKASVPTIQDQASAMQLSQCAKNLGTALAELRTAAQKAQEACGPLEMDSALSVVQNLEKDLQEIKAAARDGKLKPLPGETMEKCTQDLGNSTKAVSSAIAKLLGEIAQGNENYAGIAARDVAGGLRSLAQAARGVAALTSDPAVQAIVLDTASDVLDKASSLIEEAKKASGHPGDPESQQRLAQVAKAVTQALNRCVSCLPGQRDVDNALRAVGDASKRLLSDSLPPSTGTFQEAQSRLNEAAAGLNQAATELVQASRGTPQDLARASGRFGQDFSTFLEAGVEMAGQAPSQEDRAQVVSNLKGISMSSSKLLLAAKALSTDPASPNLKSQLAAAARAVTDSINQLITMCTQQAPGQKECDNALRQLETVRELLENPVQPINDMSYFGCLDSVMENSKVLGEAMTGISQNAKNGNLPEFGDAIATASKALCGFTEAAAQAAYLVGVSDPNSQAGQQGLVEPTQFARANQAIQMACQSLGEPGCTQAQVLSAATIVAKHTSALCNSCRLASARTANPTAKRQFVQSAKEVANSTANLVKTIKALDGDFTEENRAQCRAATAPLLEAVDNLSAFASNPEFSSVPAQISPEGRAAMEPIVISAKTMLESAGGLIQTARALAVNPRDPPRWSVLAGHSRTVSDSIKKLITSMRDKAPGQLECETAIAALNSCLRDLDQASLAAVSQQLAPREGISQEALHTQMLTAVQEISHLIEPLASAARAEASQLGHKVSQMAQYFEPLTLAAVGAASKTLSHPQQMALLDQTKTLAESALQLLYTAKEAGGNPKQAAHTQEALEEAVQMMTEAVEDLTTTLNEAASAAGVVGGMVDSITQAINQLDEGPMGDPEGSFVDYQTTMVRTAKAIAVTVQEMVTKSNTSPEELGPLANQLTSDYGRLASQAKPAAVAAENEEIGAHIKHRVQELGHGCSALVTKAGALQCSPSDVYTKKELIECARRVSEKVSHVLAALQAGNRGTQACITAASAVSGIIADLDTTIMFATAGTLNREGAETFADHREGILKTAKVLVEDTKVLVQNAAGSQEKLAQAAQSSVATITRLADVVKLGAASLGAEDPETQVVLINAVKDVAKALGDLISATKAAAGKVGDDPAVWQLKNSAKVMVTNVTSLLKTVKAVEDEATKGTRALEATTEHIRQELAVFCSPEPPAKTSTPEDFIRMTKGITMATAKAVAAGNSCRQEDVIATANLSRRAIADMLRACKEAAFHPEVAPDVRLRALHYGRECANGYLELLDHVLLTLQKPNPDLKQQLTGHSKRVAGSVTELIQAAEAMKGTEWVDPEDPTVIAENELLGAAAAIEAAAKKLEQLKPRAKPKEADESLNFEEQILEAAKSIAAATSALVKAASAAQRELVAQGKVGAIPANALDDGQWSQGLISAARMVAAATNNLCEAANAAVQGHASQEKLISSAKQVAASTAQLLVACKVKADQDSEAMKRLQAAGNAVKRASDNLVKAAQKAAAFEDQENETVVVKEKMVGGIAQIIAAQEEMLRKERELEEARKKLAQIRQQQYKFLPSELRDEH

Variants of: B1
Assay: mitochondria pulldown (MTS assay), Western blot quantification; HEK293T cells; triplicate experiments; read off a plot

Row | percent of parent [%] | Variant
1 | ~2 | chain 1 V49E
